Assay results: the supplement of paper PMC11246515
± gives the standard deviation of the averaged measurements.

Assay: total protein half-life in vivo (active degradation + dilution); higher = more stable protein
[1] = wild type E. coli NCM3722, growth: C-lim chemostat, doubling time 3 h
[2] = wild type E. coli NCM3722, growth: C-lim chemostat, doubling time 6 h
[3] = wild type E. coli NCM3722, growth: C-lim chemostat, doubling time 12 h
[4] = wild type E. coli NCM3722, growth: P-lim chemostat, doubling time 6 h
[5] = wild type E. coli NCM3722, growth: P-lim chemostat, doubling time 12 h
[6] = E. coli NCM3722 delta-clpP delta-lon delta-hslV, growth: N-lim chemostat, doubling time 6 h
[7] = E. coli NCM3722 delta-clpP, growth: N-lim chemostat, doubling time 6 h
[8] = E. coli NCM3722 delta-hslV, growth: N-lim chemostat, doubling time 6 h
[9] = E. coli NCM3722 delta-lon, growth: N-lim chemostat, doubling time 6 h
[10] = E. coli NCM3722 delta-smpB, growth: N-lim chemostat, doubling time 6 h
[11] = wild type E. coli NCM3722, growth: N-lim chemostat, doubling time 6 h
[12] = wild type E. coli NCM3722, growth: N-lim chemostat, doubling time 12 h

| Sequence | total protein half-life in vivo [1] [h] | total protein half-life in vivo [2] [h] | total protein half-life in vivo [3] [h] | total protein half-life in vivo [4] [h] | total protein half-life in vivo [5] [h] | total protein half-life in vivo [6] [h] | total protein half-life in vivo [7] [h] | total protein half-life in vivo [8] [h] | total protein half-life in vivo [9] [h] | total protein half-life in vivo [10] [h] | total protein half-life in vivo [11] [h] | total protein half-life in vivo [12] [h] |
| --- | --- | --- | --- | --- | --- | --- | --- | --- | --- | --- | --- | --- |
| MATAWYKQVNPPQRKALFSAWLGYVFDGFDFMMIFYILHIIKADLGITDIQATLIGTVAFIARPIGGGFFGAMADKYGRKPMMMWAIFIYSVGTGLSGIATNLYMLAVCRFIVGLGMSGEYACASTYAVESWPKNLQSKASAFLVSGFSVGNIIAAQIIPQFAEVYGWRNSFFIGLLPVLLVLWIRKSAPESQEWIEDKYKDKSTFLSVFRKPHLSISMIVFLVCFCLFGANWPINGLLPSYLADNGVNTVVISTLMTIAGLGTLTGTIFFGFVGDKIGVKKAFVVGLITSFIFLCPLFFISVKNSSLIGLCLFGLMFTNLGIAGLVPKFIYDYFPTKLRGLGTGLIYNLGATGGMAAPVLATYISGYYGLGVSLFIVTVAFSALLILLVGFDIPGKIYKLSVAK | 3.16 | > 8 | 9.57 | 5.55 | 9.48 ± 2.4 |  |  |  |  |  |  |  |
| MATDSTQCVKKSRGRPKVFDRDAALDKAMKLFWQHGYEATSLADLVEATGAKAPTLYAEFTNKEGLFRAVLDRYIDRFAAKHEAQLFCEEKSVESALADYFAAIANCFTSKDTPAGCFMINNCTTLSPDSGDIANTLKSRHAMQERTLQQFLCQRQARGEIPPHCDVTHLAEFLNCIIQGMSISAREGASLEKLMQIAGTTLRLWPELVK | 1.69 ± 0.081 | 2.99 ± 0.34 | 4.6 ± 0.59 | 2.49 ± 0.15 | 3.73 ± 1.1 | 5.38 ± 0.14 | 3.65 ± 0.34 | 1.46 ± 0.015 | 2.04 ± 0.17 | 1.57 ± 0.097 | 1.78 ± 0.021 | 2.32 ± 0.54 |
| MATDTLTHATAHAHEHGHHDAGGTKIFGFWIYLMSDCILFSILFATYAVLVNGTAGGPTGKDIFELPFVLVETFLLLFSSITYGMAAIAMYKNNKSQVISWLALTWLFGAGFIGMEIYEFHHLIVNGMGPDRSGFLSAFFALVGTHGLHVTSGLIWMAVLMVQIARRGLTSTNRTRIMCLSLFWHFLDVVWICVFTVVYLMGAM [P0ABJ3] |  |  | 13.9 |  |  |  |  |  |  |  |  |  |
| MATFSLGKHPHVELCDLLKLEGWSESGAQAKIAIAEGQVKVDGAVETRKRCKIVAGQTVSFAGHSVQVVA [P0AAS7] | 2.4 ± 0.59 | 4 ± 0.91 | 4.46 ± 0.44 | 1.97 ± 0.26 | 3.576 ± 0.012 | 4.09 ± 0.36 | 3.39 ± 0.29 | 2.72 ± 0.6 | 4.18 ± 1.2 | 2.3 ± 0.15 | 2.71 ± 0.057 | 3.68 ± 0.15 |
| MATGKSCSRWFAPLAALLMVVSLSGCFDKEGDQRKAFIDFLQNTVMRSGERLPTLTADQKKQFGPFVSDYAILYGYSQQVNQAMDSGLRPVVDSVNAIRVPQDYVTQSGPLREMNGSLGVLAQQLQNAKLQADAAHSALKQSDDLKPVFDQAFTKVVTTPADALQPLIPAAQTFTQQLVMVGDYIAQQGTQVSFVANGIQFPTSQQASEYNKLIAPLPAQHQAFNQAWTTAVTATQ [P0ADK0] | 3.007 ± 0.025 | 6.13 ± 0.24 | 13.5 ± 1.5 | 5.88 ± 0.16 | 12.5 ± 1.1 | 6.1 ± 0.091 |  | 6.34 ± 0.47 | 6.34 ± 0.28 | 6.1 ± 0.9 | 5.79 ± 0.17 | 12.5 ± 0.65 |
| MATIKDVARLAGVSVATVSRVINNSPKASEASRLAVHSAMESLSYHPNANARALAQQTTETVGLVVGDVSDPFFGAMVKAVEQVAYHTGNFLLIGNGYHNEQKERQAIEQLIRHRCAALVVHAKMIPDADLASLMKQMPGMVLINRILPGFENRCIALDDRYGAWLATRHLIQQGHTRIGYLCSNHSISDAEDRLQGYYDALAESGIAANDRLVTFGEPDESGGEQAMTELLGRGRNFTAVACYNDSMAAGAMGVLNDNGIDVPGEISLIGFDDVLVSRYVRPRLTTVRYPIVTMATQAAELALALADNRPLPEITNVFSPTLVRRHSVSTPSLEASHHATSD | 2.29 ± 0.2 | 4.35 ± 0.17 | 7.06 ± 0.13 | 3.26 ± 0.047 | 6.28 ± 0.3 | 5.91 ± 1.8 |  | 3.24 ± 0.35 | 2.72 ± 0.32 | 2.572 ± 0.0072 | 2.8 ± 0.21 | 3.77 ± 0.39 |
| MATLTTTQTSPSLLGGVVIIGGTIIGAGMFSLPVVMSGAWFFWSMAALIFTWFCMLHSGLMILEANLNYRIGSSFDTITKDLLGKGWNVVNGISIAFVLYILTYAYISASGSILHHTFAEMSLNVPARAAGFGFALLVAFVVWLSTKAVSRMTAIVLGAKVITFFLTFGSLLGHVQPATLFNVAESNASYAPYLLMTLPFCLASFGYHGNVPSLMKYYGKDPKTIVKCLVYGTLMALALYTIWLLATMGNIPRPEFIGIAEKGGNIDVLVQALSGVLNSRSLDLLLVVFSNFAVASSFLGVTLGLFDYLADLFGFDDSAVGRLKTALLTFAPPVVGGLLFPNGFLYAIGYAGLAATIWAAIVPALLARASRKRFGSPKFRVWGGKPMIALILVFGVGNALVHILSSFNLLPVYQ [P0AAD2] | 1.97 ± 0.16 |  |  |  |  | 2.1 |  | 0.779 |  | 0.897 |  |  |
| MATRIEFHKHGGPEVLQAVEFTPADPAENEIQVENKAIGINFIDTYIRSGLYPPPSLPSGLGTEAAGIVSKVGSGVKHIKAGDRVVYAQSALGAYSSVHNIIADKAAILPAAISFEQAAASFLKGLTVYYLLRKTYEIKPDEQFLFHAAAGGVGLIACQWAKALGAKLIGTVGTAQKAQSALKAGAWQVINYREEDLVERLKEITGGKKVRVVYDSVGRDTWERSLDCLQRRGLMVSFGNSSGAVTGVNLGILNQKGSLYVTRPSLQGYITTREELTEASNELFSLIASGVIKVDVAEQQKYPLKDAQRAHEILESRATQGSSLLIP | 3.13 ± 0.2 | 5.98 ± 0.24 | 9.65 ± 0.38 | 5.84 ± 0.14 | 12.63 ± 0.043 | 6.37 ± 0.98 | 5.12 ± 0.23 | 5.73 ± 0.15 | 5.78 ± 0.78 | 5.28 ± 0.14 | 5.5 ± 0.41 | 10.2 ± 0.47 |
| MATVNKQAIAAAFGRAAAHYEQHADLQRQSADALLAMLPQRKYTHVLDAGCGPGWMSRHWRERHAQVTALDLSPPMLVQARQKDAADHYLAGDIESLPLATATFDLAWSNLAVQWCGNLSTALRELYRVVRPKGVVAFTTLVQGSLPELHQAWQAVDERPHANRFLPPDEIEQSLNGVHYQHHIQPITLWFDDALSAMRSLKGIGATHLHEGRDPRILTRSQLQRLQLAWPQQQGRYPLTYHLFLGVIARE |  |  |  |  |  | 4.79 ± 0.22 | 2.85 ± 0.37 |  |  | 0.556 |  | 1.13 |
